Earlier results on one substance are cited in publication PMC4449288.

The target of this data set is mAKAPβ (Homo sapiens) (UniProt Q13023). The data set is described as follows: SPR. (In general: Surface plasmon resonance follows binding to a sensor surface in real time, without labels.)
UniProt Q13023, sequence (Q13023 whole entry): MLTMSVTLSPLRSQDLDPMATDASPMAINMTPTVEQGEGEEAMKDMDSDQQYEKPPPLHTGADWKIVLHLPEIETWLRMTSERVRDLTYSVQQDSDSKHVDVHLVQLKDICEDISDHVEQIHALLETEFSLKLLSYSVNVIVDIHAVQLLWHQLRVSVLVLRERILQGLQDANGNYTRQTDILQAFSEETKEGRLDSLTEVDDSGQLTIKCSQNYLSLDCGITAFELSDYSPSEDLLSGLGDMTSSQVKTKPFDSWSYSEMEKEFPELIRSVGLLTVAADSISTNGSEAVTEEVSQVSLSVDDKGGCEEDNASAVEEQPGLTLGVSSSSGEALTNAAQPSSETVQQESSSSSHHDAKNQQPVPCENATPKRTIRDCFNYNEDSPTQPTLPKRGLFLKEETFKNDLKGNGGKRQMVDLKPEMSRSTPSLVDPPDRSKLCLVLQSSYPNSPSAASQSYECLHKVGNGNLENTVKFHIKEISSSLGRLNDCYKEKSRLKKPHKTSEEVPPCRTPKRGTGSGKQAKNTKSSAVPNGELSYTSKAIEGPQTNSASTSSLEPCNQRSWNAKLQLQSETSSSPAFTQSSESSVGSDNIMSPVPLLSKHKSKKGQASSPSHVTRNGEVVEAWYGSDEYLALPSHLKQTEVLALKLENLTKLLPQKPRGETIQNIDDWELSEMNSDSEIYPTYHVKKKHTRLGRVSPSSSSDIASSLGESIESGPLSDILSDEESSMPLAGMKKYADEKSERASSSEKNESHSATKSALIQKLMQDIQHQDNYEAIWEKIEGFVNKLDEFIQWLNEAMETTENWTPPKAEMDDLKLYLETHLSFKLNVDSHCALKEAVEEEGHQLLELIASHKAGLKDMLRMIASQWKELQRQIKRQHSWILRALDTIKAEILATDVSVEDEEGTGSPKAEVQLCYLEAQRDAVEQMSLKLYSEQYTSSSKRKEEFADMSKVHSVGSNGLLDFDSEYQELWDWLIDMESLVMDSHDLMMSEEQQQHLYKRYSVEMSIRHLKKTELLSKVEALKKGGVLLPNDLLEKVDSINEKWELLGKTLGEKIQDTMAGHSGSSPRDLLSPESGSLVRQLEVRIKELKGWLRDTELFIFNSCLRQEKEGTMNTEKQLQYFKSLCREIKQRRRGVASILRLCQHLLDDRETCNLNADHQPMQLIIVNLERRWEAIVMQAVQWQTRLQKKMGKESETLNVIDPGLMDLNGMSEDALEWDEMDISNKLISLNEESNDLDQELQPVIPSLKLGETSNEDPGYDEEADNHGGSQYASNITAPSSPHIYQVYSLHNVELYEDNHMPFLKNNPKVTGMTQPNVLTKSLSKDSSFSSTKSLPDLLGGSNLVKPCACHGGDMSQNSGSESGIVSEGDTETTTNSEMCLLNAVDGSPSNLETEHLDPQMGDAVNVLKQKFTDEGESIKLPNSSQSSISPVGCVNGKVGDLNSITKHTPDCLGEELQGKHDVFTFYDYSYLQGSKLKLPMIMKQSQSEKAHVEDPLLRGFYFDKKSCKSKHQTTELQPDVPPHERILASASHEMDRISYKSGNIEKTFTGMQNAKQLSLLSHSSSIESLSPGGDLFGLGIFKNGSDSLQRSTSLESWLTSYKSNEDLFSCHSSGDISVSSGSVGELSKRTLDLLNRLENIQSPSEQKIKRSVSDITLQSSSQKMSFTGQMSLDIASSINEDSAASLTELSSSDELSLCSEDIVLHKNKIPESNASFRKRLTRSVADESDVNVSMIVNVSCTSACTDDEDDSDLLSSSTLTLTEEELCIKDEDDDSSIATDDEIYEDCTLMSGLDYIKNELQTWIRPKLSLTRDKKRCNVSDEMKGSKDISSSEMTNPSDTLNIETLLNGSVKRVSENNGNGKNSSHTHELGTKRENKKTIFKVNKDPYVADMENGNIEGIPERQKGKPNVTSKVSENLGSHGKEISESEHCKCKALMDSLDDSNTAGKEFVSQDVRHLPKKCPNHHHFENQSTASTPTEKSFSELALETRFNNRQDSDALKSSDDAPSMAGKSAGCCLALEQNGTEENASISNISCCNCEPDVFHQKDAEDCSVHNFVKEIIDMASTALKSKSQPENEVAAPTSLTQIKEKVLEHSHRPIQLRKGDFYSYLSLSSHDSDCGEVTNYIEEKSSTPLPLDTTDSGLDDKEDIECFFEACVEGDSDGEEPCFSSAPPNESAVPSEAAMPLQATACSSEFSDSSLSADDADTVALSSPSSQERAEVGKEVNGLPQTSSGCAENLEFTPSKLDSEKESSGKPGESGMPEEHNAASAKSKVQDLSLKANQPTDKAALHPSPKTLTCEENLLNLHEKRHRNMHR

RSK3 (from UniProt Q15349): the Kd is 1.6 nM.

As usually defined, the Kd is the concentration at which binding is half-saturated.
